In publication PMC3689955:

Biological target: XRCC4/Ligase IV (XL) (UniProt Q13426)
Sequence (Q13426 whole entry, chain 1 of 2): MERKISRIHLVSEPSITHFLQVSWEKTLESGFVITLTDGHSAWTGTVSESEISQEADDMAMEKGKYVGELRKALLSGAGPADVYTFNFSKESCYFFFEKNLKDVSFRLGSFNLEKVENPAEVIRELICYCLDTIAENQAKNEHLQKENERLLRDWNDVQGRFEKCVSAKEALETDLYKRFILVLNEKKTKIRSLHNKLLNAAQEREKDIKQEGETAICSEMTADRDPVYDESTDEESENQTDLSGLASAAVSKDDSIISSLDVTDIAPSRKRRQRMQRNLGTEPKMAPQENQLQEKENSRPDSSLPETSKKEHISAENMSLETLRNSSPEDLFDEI
Sequence (P49917 whole entry, chain 2 of 2, further chain): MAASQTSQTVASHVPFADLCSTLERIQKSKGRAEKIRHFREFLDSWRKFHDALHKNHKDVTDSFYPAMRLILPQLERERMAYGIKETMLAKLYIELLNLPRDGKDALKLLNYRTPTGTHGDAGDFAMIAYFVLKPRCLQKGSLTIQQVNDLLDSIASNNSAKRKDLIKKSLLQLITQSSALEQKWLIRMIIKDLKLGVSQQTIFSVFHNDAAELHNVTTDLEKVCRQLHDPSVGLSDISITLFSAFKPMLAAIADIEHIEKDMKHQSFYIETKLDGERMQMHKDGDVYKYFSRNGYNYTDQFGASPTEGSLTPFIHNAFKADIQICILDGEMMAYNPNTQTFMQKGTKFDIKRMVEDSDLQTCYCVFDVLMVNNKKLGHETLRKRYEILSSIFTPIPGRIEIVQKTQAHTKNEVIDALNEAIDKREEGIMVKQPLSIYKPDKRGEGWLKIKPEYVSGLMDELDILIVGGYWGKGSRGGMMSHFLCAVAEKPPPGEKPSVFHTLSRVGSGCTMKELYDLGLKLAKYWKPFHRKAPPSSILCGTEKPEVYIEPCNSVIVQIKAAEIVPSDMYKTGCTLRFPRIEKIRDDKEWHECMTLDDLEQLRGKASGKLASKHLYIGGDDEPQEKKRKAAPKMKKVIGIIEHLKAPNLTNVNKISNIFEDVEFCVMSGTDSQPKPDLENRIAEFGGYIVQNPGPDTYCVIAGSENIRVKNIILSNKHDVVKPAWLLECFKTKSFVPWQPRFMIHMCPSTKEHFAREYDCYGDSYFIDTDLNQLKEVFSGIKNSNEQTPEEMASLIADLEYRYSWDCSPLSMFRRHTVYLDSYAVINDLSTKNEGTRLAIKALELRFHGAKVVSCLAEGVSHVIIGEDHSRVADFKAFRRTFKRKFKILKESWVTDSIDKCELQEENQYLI

Sequence of XRCC4-like factor (XLF, also known as Cernunnos) (Q9H9Q4 whole entry): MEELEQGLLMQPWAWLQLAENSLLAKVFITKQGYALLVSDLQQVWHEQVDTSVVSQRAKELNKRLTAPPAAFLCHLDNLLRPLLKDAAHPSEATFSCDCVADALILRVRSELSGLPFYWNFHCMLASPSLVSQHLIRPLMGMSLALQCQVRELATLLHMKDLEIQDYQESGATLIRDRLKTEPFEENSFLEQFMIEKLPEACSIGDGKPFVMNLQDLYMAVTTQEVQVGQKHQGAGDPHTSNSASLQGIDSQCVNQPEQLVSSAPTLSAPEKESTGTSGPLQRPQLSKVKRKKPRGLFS

stoichiometry N (XL to XLF molar ratio): 1
Substance: XRCC4-like factor (XLF, also known as Cernunnos) (from UniProt Q9H9Q4 1-299) (natural protein)
